In one test the test system is hESCs (hESCyt-25). The experiment in a line: Q-PCR gene expression assay of marker genes in differentiating hESCs. To be noted: for suppression of AFP gene expression: in comparison to no treatment (10% FBS alone), FIG. 8A. In kind it is cell-based, human. On the procedure:
In the following experiments, real-time quantitative RT-PCR (Q-PCR) was the primary assay used for screening the effects of various treatments on HESC differentiation. In particular, real-time measurements of gene expression were analyzed for multiple marker genes at multiple time points by Q-PCR. Marker genes characteristic of the desired as well as undesired cell types were evaluated to gain a better understanding of the overall dynamics of the cellular populations. The strength of Q-PCR analysis includes its extreme sensitivity and relative ease of developing the necessary markers, as the genome sequence is readily available. Furthermore, the extremely high sensitivity of Q-PCR permits detection of gene expression from a relatively small number of cells within a much larger population. In addition, the ability to detect very low levels of gene expression provides indications for “differentiation bias” within the population. The bias towards a particular differentiation pathway, prior to the overt differentiation of those cellular phenotypes, is unrecognizable using immunocytochemical techniques. […] Additionally, Q-PCR provides a mechanism by which to evaluate the success of a differentiation protocol in a quantitative format at semi-high throughput scales of analysis.
The approach taken here was to perform relative quantitation using SYBR Green chemistry on a Rotor Gene 3000 instrument (Corbett Research) and a two-step RT-PCR format. Such an approach allowed for the banking of cDNA samples for analysis of additional marker genes in the future, thus avoiding variability in the reverse transcription efficiency between samples.
Primers were designed to lie over exon-exon boundaries or span introns of at least 800 bp when possible, as this has been empirically determined to eliminate amplification from contaminating genomic DNA.
We routinely used Q-PCR to measure the gene expression of multiple markers of target and non-target cell types in order to provide a broad profile description of gene expression in cell samples. The markers relevant for the early phases of hESC differentiation (specifically ectoderm, mesoderm, definitive endoderm and extra-embryonic endoderm) and for which validated primer sets are available are provided below in Table 1. […] This is an important fact since the hESCs were often grown on mouse feeder layers. Most typically, triplicate samples were taken for each condition and independently analyzed in duplicate to assess the biological variability associated with each quantitative determination.
To generate PCR template, total RNA was isolated using RNeasy (Qiagen) and quantitated using RiboGreen (Molecular Probes). Reverse transcription from 350-500 ng of total RNA was carried out using the iScript reverse transcriptase kit (BioRad), which contains a mix of oligo-dT and random primers. Each 20 μL reaction was subsequently diluted up to 100 μL total volume and 3 μL was used in each 10 μL Q-PCR reaction containing 400 nM forward and reverse primers and 5 μL 2×SYBR Green master mix (Qiagen). Two step cycling parameters were used employing a 5 second denature at 85-94° C. (specifically selected according to the melting temp of the amplicon for each primer set) followed by a 45 second anneal/extend at 60° C. Fluorescence data was collected during the last 15 seconds of each extension phase. A three point, 10-fold dilution series was used to generate the standard curve for each run and cycle thresholds (Ct's) were converted to quantitative values based on this standard curve. The quantitated values for each sample were normalized to housekeeping gene performance and then average and standard deviations were calculated for triplicate samples. At the conclusion of PCR cycling, a melt curve analysis was performed to ascertain the specificity of the reaction. A single specific product was indicated by a single peak at the Tm appropriate for that PCR amplicon. […]

For a further test, the system named is hESCs. The test can be described thus: CXCR4+ cell number by flow cytometry (FACS). Type of test: cell-based, human. To be noted: 0, 10 or 100 ng/mL; 7 days; 0.5%-2% FBS; FIGS. 30A-C. On the procedure:
hESCs were differentiated in RPMI media supplemented with 0.5%-2% FBS (increased from 0.5% to 1.0% to 2.0% over the first 3 days of differentiation) and either 0, 10, or 100 ng/mL of activin A. After 7 days of differentiation the cells were dissociated in PBS without Ca^2+/Mg^2+ containing 2% FBS and 2 mM (EDTA) for 5 minutes at room temperature. The cells were filtered through 35 um nylon filters, counted and pelleted. Pellets were resuspended in a small volume of 50% human serum/50% normal donkey serum and incubated for 2 minutes on ice to block non-specific antibody binding sites. To this, 1 uL of mouse anti-CXCR4 antibody (Abeam, cat# ab10403-100) was added per 50 uL (containing approximately 10^5 cells) and labeling proceeded for 45 minutes on ice. Cells were washed by adding 5 mL of PBS containing 2% human serum (buffer) and pelleted. A second wash with 5 mL of buffer was completed then cells were resuspended in 50 uL buffer per 10^5 cells. […] Cells were resuspended at 5×10^6 cells/mL in buffer and analyzed and sorted using a FACS Vantage (Beckton Dickenson) by the staff at the flow cytometry core facility (The Scripps Research Institute). Cells were collected directly into RLT lysis buffer (Qiagen) for subsequent isolation of total RNA for gene expression analysis by real-time quantitative PCR.

B1: Activin A: growth factor of the TGFβ superfamily, Nodal/Activin subgroup; definitive endoderm inducer (protein, UniProt P08476 311-426, looked up)
Inhibin beta A chain: GLECDGKVNICCKKQFFVSFKDIGWNDWIIAPSGYHANYCEGECPSHIAGTSGSSLSFHSTVINHYRMRGHSPFANLKSCCVPTKLRPMSMLYYDDGQNIIKKDIQNMIVEECGCS
As for B1, in the test on hESCs (hESCyt-25) (0, 10, 30 or 100 ng/ml, 3 days adherent then 1, 3 and 5 days suspension culture, FIG. 11), the “SOX17 gene expression, dose response” value is reported as “dose-dependently increases”. Besides, the “relative levels of CXCR4 gene expression with increasing dose” value in the test on hESCs (hESCyt-25) (0, 10 or 100 ng/mL, 7 days, FIG. 32) is “dramatically increased”. Also, the CXCR4 expression result in the test on hESCs (hESCyt-25) (100 ng/mL activin A (A100) vs no exogenous activin A (NF), 6 days, FIG. 26) was “high”. For the same molecule, the CXCR4 level entry in the test with hESCs (hESCyt-25) (100 ng/mL activin A, 10% FBS condition, 6 days, FIG. 26) is “remarkable decrease”. For the same molecule, the “mesoderm differentiation (expression of brachyury)” value in the test on hESCs (hESCyt-25) (100 ng/ml, FIG. 14B) is “notable suppression”. In the test on hESCs (hESCyt-25) (4-day time point, 10% serum), the “SOX17 induction compared to no factor medium controls” value is 5 fold. Besides, the “expression of brachyury relative to untreated control cultures” value in the test with hESCs (hESCyt-25) (10 and 30 ng/ml, later time points, FIG. 14B) is given as “maintain the expression of brachyury at later time points”. Besides, in the test with hESCs (hESCyt-25) (FIG. 7A), the “SOX17 gene expression relative to the undifferentiated control media (SR20)” value is listed as “increases” and the “difference in the level of SOX17 mRNA expression, Activin A vs retinoic acid treated hESCs” value worked out at 10 fold. The “expression of the visceral endoderm marker AFP, dose response” value with hESCs (hESCyt-25) (FIG. 13A) is “dose-dependent decrease”. Also, the “expression of the neural marker ZIC1” value in the test on hESCs (hESCyt-25) (FIG. 14A) is recorded as “not a dose-dependent effect”. Besides, the “expression of MIXL1, GATA4 and HNF3b, dose response” value in the test on hESCs (hESCyt-25) (FIGS. 12A-C) is on record as “dose-dependent increases”. Also, the “expression of SOX7 (primitive endoderm) and SPARC (parietal endoderm)” value in the test with hESCs (hESCyt-25) (FIGS. 13B-C) is recorded as “remain either unchanged or exhibit suppression at some time points”. The “induction of SOX17 gene expression vs. undifferentiated hESCs” value in the test on hESCs (hESCyt-25) (day 4 of differentiation, Activin A at 100 ng/ml, medium with 10% serum, FIG. 19) came out at 19 fold. For the same molecule, in the test with hESCs (hESCyt-25) (doses of 100 ng/mL or more), the “SOX17 gene expression and cell number” value is “potently inducing”. In addition, the “suppression of AFP gene expression” value in the test on hESCs (hESCyt-25) is given as 6.8 fold. For the same molecule, in the test with hESCs (hESCyt-25) (listed as activin A), the “suppression of AFP gene expression” value is listed as “approximately 7 fold”. Moreover, in the test with hESCs, the “number of CXCR4+ cells as dose is increased” value was “increase dramatically”.

Values taken from patent publication US8586357B2, “Markers of definitive endoderm” (ViaCyte, Inc., priority 2003, dated 2013).
